In publication PMC5173139, “Dual inhibition of ErbB1 and ErbB2 in cancer by recombinant human prolidase mutant hPEPD-G278D” (Oncotarget, 2016) one finds Kd and fold reduction of binding affinity (Kd) against wild-type ErbB1 data, which are given here for three molecules.

One assay concerns the target ErbB2 (Homo sapiens) (UniProt P04626). To be noted: cited from earlier work.
A further assay deals with ErbB1 ECD (Homo sapiens) (UniProt P00533). To be noted: cited from earlier work.
Assay [1] addresses human ErbB1 mutant lacking ECD subdomain 4 (aa #481-620) (human) (UniProt P00533). Nature of the assay: ELISA; as a1 but with lysates of CHO-K1 cells transiently transfected for 24 h with wild-type ErbB1 or a subdomain deletion mutant; equal amounts of ErbB1 protein by immunoblot densitometry.
Assay [2] deals with human ErbB1 mutant lacking ECD subdomain 3 (aa #311-480) (human) (UniProt P00533). Described as above.
In assay [3] the target is human ErbB1 mutant lacking ECD subdomain 1 (aa #1-165) (human) (UniProt P00533). The assay is described as above.
Assay [4] deals with T1, human ErbB1, full length, stably expressed in CHO-K1 cells (CHO-K1/ErbB1) (human, UniProt P00533 25-1210).
T1 construct: human ErbB1 (EGF receptor), full length; source: CHO-K1, stably transfected (pCMV6-A-ERBB1-Puro, puromycin selection), in lysate
The experiment in a line: ELISA; wells coated with an antibody to the cytoplasmic tail of ErbB1; serially diluted His-tagged hPEPD or mutant plus CHO-K1/ErbB1 cell lysate (25 ug total protein), 37 C, 2 h; bound PEPD detected by biotin-conjugated anti-His antibody and streptavidin-HRP; CHO-K1 lysate as control. To be noted: one partner purified.

For prolidase (PEPD) (from UniProt P12955), the equilibrium dissociation constant (Kd) (commonly the concentration at which binding is half-saturated) in the assay with ErbB2 (Homo sapiens) is 0.0073 µM; with ErbB1 ECD (Homo sapiens), 5 µM.

B1: hPEPD-G278D, enzymatically inactive mutant of recombinant human prolidase (enzyme)
chain: MAAATGPSFWLGNETLKVPLALFALNRQRLCERLRKNPAVQAGSIVVLQGGEETQRYCTDTGVLFRQESFFHWAFGVTEPGCYGVIDVDTGKSTLFVPRLPASHATWMGKIHSKEHFKEKYAVDDVQYVDEIASVLTSQKPSVLLTLRGVNTDSGSVCREASFDGISKFEVNNTILHPEIVECRVFKTDMELEVLRYTNKISSEAHREVMKAVKVGMKEYELESLFEHYCYSRGGMRHSSYTCICGSGENSAVLHYGHAGAPNDRTIQNGDMCLFDMDGEYYCFASDITCSFPANGKFTADQKAVYEAVLRSSRAVMGAMKPGVWWPDMHRLADRIHLEELAHMGILSGSVDAMVQAHLGAVFMPHGLGHFLGIDVHDVGGYPEGVERIDEPGLRSLRTARHLQPGMVLTVEPGIYFIDHLLDEALADPARASFLNREVLQRFRGFGGVRIEEDVVVTDSGIELLTCVPRTVEEIEACMAGCDKAFTPFSGPK
B1: the fold reduction of binding affinity (Kd) against wild-type ErbB1 worked out at 1.4 fold in assay [1], 7.4 fold in assay [2] and 19.2 fold in assay [3].

B2: recombinant human prolidase (peptidase D), hPEPD (enzyme, UniProt P12955 1-493, looked up)
chain: MAAATGPSFWLGNETLKVPLALFALNRQRLCERLRKNPAVQAGSIVVLQGGEETQRYCTDTGVLFRQESFFHWAFGVTEPGCYGVIDVDTGKSTLFVPRLPASHATWMGKIHSKEHFKEKYAVDDVQYVDEIASVLTSQKPSVLLTLRGVNTDSGSVCREASFDGISKFEVNNTILHPEIVECRVFKTDMELEVLRYTNKISSEAHREVMKAVKVGMKEYELESLFEHYCYSRGGMRHSSYTCICGSGENSAVLHYGHAGAPNDRTIQNGDMCLFDMGGEYYCFASDITCSFPANGKFTADQKAVYEAVLRSSRAVMGAMKPGVWWPDMHRLADRIHLEELAHMGILSGSVDAMVQAHLGAVFMPHGLGHFLGIDVHDVGGYPEGVERIDEPGLRSLRTARHLQPGMVLTVEPGIYFIDHLLDEALADPARASFLNREVLQRFRGFGGVRIEEDVVVTDSGIELLTCVPRTVEEIEACMAGCDKAFTPFSGPK
notes: source: E. coli, as previously described [13, 17]; not shown: His tag, C-terminal, kept
As to B2, the Kd in assay [4] amounted to 0.0177 µM.
